These results are taken from US20180022805A1.

The experiment deals with pre-B cell receptor (pre-BCR) on the surface of live BCP-ALL cells (human) (UniProt P15814). Briefly: single particle tracking with hidden Markov model (Viterbi plot), one receptor pair on 697 cells.

Sequence of pre-B cell receptor (pre-BCR) on the surface of live BCP-ALL cells (chain): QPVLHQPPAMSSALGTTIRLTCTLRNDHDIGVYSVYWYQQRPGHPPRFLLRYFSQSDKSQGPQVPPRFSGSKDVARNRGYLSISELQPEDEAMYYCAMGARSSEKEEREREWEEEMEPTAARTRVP
Sequence of pre-B cell receptor (pre-BCR) on the surface of live BCP-ALL cells (P15814 38-213): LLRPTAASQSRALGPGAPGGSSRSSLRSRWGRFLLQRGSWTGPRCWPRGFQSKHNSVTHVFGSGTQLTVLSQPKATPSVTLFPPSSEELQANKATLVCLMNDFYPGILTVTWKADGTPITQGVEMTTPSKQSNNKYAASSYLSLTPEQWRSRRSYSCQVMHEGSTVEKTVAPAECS
Sequence of pre-B cell receptor (pre-BCR) on the surface of live BCP-ALL cells (P11912 33-226): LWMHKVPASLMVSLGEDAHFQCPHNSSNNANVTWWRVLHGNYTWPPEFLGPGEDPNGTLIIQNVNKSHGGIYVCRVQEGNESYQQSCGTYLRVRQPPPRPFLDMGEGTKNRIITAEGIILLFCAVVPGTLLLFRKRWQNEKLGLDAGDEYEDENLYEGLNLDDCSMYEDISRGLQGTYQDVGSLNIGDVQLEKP
Sequence of pre-B cell receptor (pre-BCR) on the surface of live BCP-ALL cells (P40259 29-229): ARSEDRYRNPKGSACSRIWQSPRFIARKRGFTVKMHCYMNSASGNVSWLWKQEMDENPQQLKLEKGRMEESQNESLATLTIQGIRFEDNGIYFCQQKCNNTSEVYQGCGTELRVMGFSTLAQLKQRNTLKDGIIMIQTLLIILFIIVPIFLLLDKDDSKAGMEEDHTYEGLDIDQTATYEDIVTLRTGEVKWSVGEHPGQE

The substance “pre-B cell receptor (pre-BCR) on the surface of live BCP-ALL cells (from UniProt P15814 38-213; P11912 33-226; P40259 29-229)” yielded a homo-interaction lifetime of under 3 s.
